Data as given in patent US20150239980A1 (NEOTOPE BOSCIENCES, published 2015).

Tests used:
[1] = biological target: T1, human MCAM (melanoma cell adhesion molecule) expressed on transfected CHO cells (human, UniProt P43121 24-646); test: laminin/FACS on hMCAM CHO cells, competitor laminin 411; Expt#1; vs rodent 1749
T1 construct: also called hMCAM; CD146
T1 chain: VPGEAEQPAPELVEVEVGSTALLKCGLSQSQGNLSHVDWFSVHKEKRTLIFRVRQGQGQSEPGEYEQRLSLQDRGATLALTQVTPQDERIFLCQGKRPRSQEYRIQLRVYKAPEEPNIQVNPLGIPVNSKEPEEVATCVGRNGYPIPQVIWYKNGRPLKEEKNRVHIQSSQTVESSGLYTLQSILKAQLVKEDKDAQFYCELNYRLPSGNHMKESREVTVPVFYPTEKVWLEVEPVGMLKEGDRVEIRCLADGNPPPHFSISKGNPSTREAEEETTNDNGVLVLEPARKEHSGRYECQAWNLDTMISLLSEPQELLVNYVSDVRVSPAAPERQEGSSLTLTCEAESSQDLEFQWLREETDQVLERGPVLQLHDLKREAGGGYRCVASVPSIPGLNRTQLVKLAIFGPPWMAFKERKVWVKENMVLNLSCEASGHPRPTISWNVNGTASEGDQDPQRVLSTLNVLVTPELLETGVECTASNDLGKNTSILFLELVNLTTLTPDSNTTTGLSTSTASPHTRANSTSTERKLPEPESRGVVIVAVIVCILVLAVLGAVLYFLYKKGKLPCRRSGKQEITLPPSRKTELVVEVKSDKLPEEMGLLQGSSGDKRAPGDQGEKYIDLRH
Method in brief: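 Detection of cell-bound laminin used anti-laminin conjugated to AF650 after a wash step, the preceding incubation lasting 30-45 minutes. Signal was read on a flow cytometer.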

recombinant hMCAM-His = biological target: T2, recombinant hMCAM-His (human, UniProt P43121 24-559); test: competitive ELISA on hMCAM-His, competitor biotinylated rodent or chimeric 1749; Expt. #1; vs rodent 1749
T2 construct: not shown: His tag
T2 chain: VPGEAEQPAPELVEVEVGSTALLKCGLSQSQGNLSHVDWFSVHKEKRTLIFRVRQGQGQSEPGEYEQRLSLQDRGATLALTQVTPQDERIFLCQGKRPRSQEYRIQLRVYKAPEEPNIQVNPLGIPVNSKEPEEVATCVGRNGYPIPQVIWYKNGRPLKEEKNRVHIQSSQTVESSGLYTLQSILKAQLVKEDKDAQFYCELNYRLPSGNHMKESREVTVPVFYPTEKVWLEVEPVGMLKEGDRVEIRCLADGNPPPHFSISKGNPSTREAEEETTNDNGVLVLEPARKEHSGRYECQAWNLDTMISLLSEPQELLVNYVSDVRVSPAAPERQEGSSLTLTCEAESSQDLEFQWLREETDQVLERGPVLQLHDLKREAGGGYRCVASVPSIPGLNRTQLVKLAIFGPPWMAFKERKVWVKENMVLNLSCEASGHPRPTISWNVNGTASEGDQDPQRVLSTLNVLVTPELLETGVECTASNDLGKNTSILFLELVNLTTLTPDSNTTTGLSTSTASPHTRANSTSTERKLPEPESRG
Protocol: ELISA plates were coated with recombinant hMCAM-His, and blocked with casein buffer to prevent non-specific binding. Biotinylated rodent or chimeric antibody was added at a subsaturating concentration, in the presence or absence of 3× increasing concentrations of unlabeled competitor (humanized antibody, rodent, or chimeric). After washing to remove unbound antibody, streptavidin HRP was added to allow detection of the biotinylated antibody. The ELISA was developed with TMB substrate and the OD450 was measured. The IC50 of the unlabeled competitor was determined using the GraphPad Prism5 software.

[2] = biological target: T1, human MCAM (melanoma cell adhesion …); test: flow cytometry, human MCAM CHO cells preincubated with antibody, competitor recombinant human laminin 411 at 20 ug/ml

B1: mouse anti-human MCAM monoclonal antibody clone 1749.1.3 (antibody, V domains shown)
VH: DVKLVESGGDLVKPGGSLKLSCAASGFTFSSYIMSWVRQTPEKRLEWVATISSGGSSTYYPDSVKGRFTISRDNAKNTLYLQMSSLKSEDTAMYYCTRDDDYDVKVFAYWGQGTLVTVSA
VL: DIVMSQSPSSLAVSAGEKVTMNCKSSRSLLNSRIRKNYLAWYQQKPGQSPKLLIYWASTRESGVPDRFTGSGSGTDFTLTISSVQAEDLAVYYCKQSYNLLTFGAGTKLELK
notes: mouse hybridoma antibody; also called rodent 1749; murine 1749.1.3 anti-MCAM antibody
[1]
  fold over rodent (blocking, laminin/FACS): 1 fold
Recombinant hMCAM-His
  fold over rodent (competitive ELISA): 1 fold
[2]
  IC50: 0.545 µg/mL
